Values joined by “and” are separate entries in the source; they are usually repeats but may differ in a detail not shown here. Identical values can stand only once.

Assay [1] concerns the target T1, recombinant cynomolgus CFD, His-tagged (cynomolgus).
T1 construct: also called rcyCFD-His; recombinant Cyno-CFD
Description: SPR MX96.

Assay [2] has as its target T2, serum purified human Complement Factor D (human, UniProt P00746 26-253).
T2 construct: Serum purified protein flowed over the captured antibodies; also called CFD; human CFD
Description: SPR Biacore, antibody on protein A chip, single cycle kinetics, 37 C.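 Also: antibodies captured on the protein A surface to roughly 70 RU in HBS-EP+ buffer, with rate and affinity constants fitted using BIAevaluation software.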
Description: (§1) Antibodies were diluted to 0.5 ug/ml in HBS-EP+ buffer and captured on a protein A chip for 25 seconds to reach approximately 70 resonance units. […] Binding kinetic information was obtained by the BIAevaluation software (GE).

In assay [3] the target is T2, serum purified human Complement Factor D. Description: SPR Biacore, antibody on protein A chip, single cycle kinetics, 25 C.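 Also: antibodies captured to roughly 70 RU on the protein A surface in HBS-EP+ running buffer, with kinetic constants derived by BIAevaluation fitting.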
Description: as §1

T2 sequence (P00746 26-253): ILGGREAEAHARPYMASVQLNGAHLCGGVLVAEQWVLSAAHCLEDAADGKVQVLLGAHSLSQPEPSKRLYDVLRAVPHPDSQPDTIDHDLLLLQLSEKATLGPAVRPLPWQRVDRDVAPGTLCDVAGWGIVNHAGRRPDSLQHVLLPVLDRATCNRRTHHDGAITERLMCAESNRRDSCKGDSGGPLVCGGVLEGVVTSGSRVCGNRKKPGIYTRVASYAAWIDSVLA

B1: KCD129 (antibody, V domains shown)
VH: EVQLVESGGGLVQPKGSLKLSCAASGFSFNTYAMNWVRQAPGKGLEWVARIRSKSNNYATYYADSVKDRFTISRDDSESMVYLQMNNLKTEDTAMYYCVRHGYYWYFDVWGTGTTVTVSS
VL: DVLMTQTPLSLPVSLGDQASISCRSSQSIVHSDGNTYLEWYLQKPGQSPKLLIYRVSNRFSGVPDRFSGSGSGTDFTLKISRMEAEDLGVYYCFQGSHVPYTFGGGTKLEIK
In the case of B1, in assay [1], the Kd is 6000 pM.

B2: KCD207 (antibody, V domains shown)
VH: AVQLVESGGGLVQPKGSLKLSCAASGFSFNTYAMNWVRQAPGKGLEWVARIRSKSNNYATYYADSVKDRFTLSRDDSESMLYLQMNNLKTEDTAMYYCVRQGFYWYFDVWGTGTTVTVSS
VL: DVLMTQTPLSLPVSLGDQASISCRSSQTIVHSNGNTYLEWYLQKSGQSPKLLIYNVSNRFSGVPDRFRGSGSGTDFTLKISRVEAEDLGVYYCFQGSHVPYTFGSGTKLEIK
For the molecule B2, in assay [1], the dissociation constant Kd is 1400 pM.

B3: 54I59D / 54G60W101 (antibody, V domains shown)
VH: EVQLVESGGGLVQPGGSLRLSCAASGYTFTDYYMNWVRQAPGKGLEWIGDINPITGDTDYNADFKRRFTFSLDTSKSTAYLQMNSLRAEDTAVYYCTREGPSFAYWGQGTLVTVSS
VL: DIQLTQSPSSLSASVGDRVTITCRSSQTIVHSNGDTYLEWYQQKPGKAPNLLIGKVSNRWSGVPSRFSGSGSGTDFTLTISSLQPEDFATYYCFQGSHVPVTFGQGTKVEIK
B3: in assay [2], the Kd came out at 9.89 pM, the koff stood at 0.000118 s⁻¹ and the kon was 1.19e+07 M⁻¹ s⁻¹. In assay [3], this molecule registered a Kd of 12.5 pM, a koff of 8.54e-05 s⁻¹ and a kon of 6.83e+06 M⁻¹ s⁻¹.

B4: 54V59D / 32W50I101V (antibody, V domains shown)
VH: EVQLVESGGGLVQPGGSLRLSCAASGYTFTDYYMNWVRQAPGKGLEWIGDINPVTGDTDYNADFKRRFTFSLDTSKSTAYLQMNSLRAEDTAVYYCTREGPSFAYWGQGTLVTVSS
VL: DIQLTQSPSSLSASVGDRVTITCRSSQTIVHWNGDTYLEWYQQKPGKAPILLIYKVSNRFSGVPSRFSGSGSGTDFTLTISSLQPEDFATYYCFQGSHVPVTFGQGTKVEIK
notes: KCD119 TAF variant; full antibody captured on protein A
With B4, in assay [2], the Kd came to 22.3 pM, the koff turned out to be 0.000305 s⁻¹ and the kon was 1.37e+07 M⁻¹ s⁻¹. In assay [3], this molecule gave a Kd of 15.8 pM, a koff of 0.000105 s⁻¹ and a kon of 6.64e+06 M⁻¹ s⁻¹.

B5: 54I59D / 101V (antibody, V domains shown)
VH: EVQLVESGGGLVQPGGSLRLSCAASGYTFTDYYMNWVRQAPGKGLEWIGDINPITGDTDYNADFKRRFTFSLDTSKSTAYLQMNSLRAEDTAVYYCTREGPSFAYWGQGTLVTVSS
VL: DIQLTQSPSSLSASVGDRVTITCRSSQTIVHSNGDTYLEWYQQKPGKAPNLLIYKVSNRFSGVPSRFSGSGSGTDFTLTISSLQPEDFATYYCFQGSHVPVTFGQGTKVEIK
notes: as for B4
B5: in assay [2], the Kd was 47.5 pM and 18.4 pM; the koff is 0.000437 s⁻¹ and 0.000222 s⁻¹; the kon was 9.19e+06 M⁻¹ s⁻¹ and 1.21e+07 M⁻¹ s⁻¹. In assay [3], the Kd was 20.4 pM and 26.7 pM and 9.08 pM; the koff is 0.000152 s⁻¹ and 0.000154 s⁻¹ and 5.74e-05 s⁻¹; the kon is 7.43e+06 M⁻¹ s⁻¹ and 5.78e+06 M⁻¹ s⁻¹ and 6.32e+06 M⁻¹ s⁻¹.

B6: 54V56V / 101V (antibody, V domains shown)
VH: EVQLVESGGGLVQPGGSLRLSCAASGYTFTDYYMNWVRQAPGKGLEWIGDINPVTVDTSYNADFKRRFTFSLDTSKSTAYLQMNSLRAEDTAVYYCTREGPSFAYWGQGTLVTVSS
VL: DIQLTQSPSSLSASVGDRVTITCRSSQTIVHSNGDTYLEWYQQKPGKAPNLLIYKVSNRFSGVPSRFSGSGSGTDFTLTISSLQPEDFATYYCFQGSHVPVTFGQGTKVEIK
notes: as for B4
In assay [2], B6 yielded a Kd of 107 pM, a koff of 0.00104 s⁻¹ and a kon of 9.69e+06 M⁻¹ s⁻¹. Besides, in assay [3], the Kd turned out to be 64.5 pM, the koff was determined as 0.000351 s⁻¹ and the kon stood at 5.44e+06 M⁻¹ s⁻¹.

B7: 54V59D / 32D50I101V (antibody, V domains shown)
VH: EVQLVESGGGLVQPGGSLRLSCAASGYTFTDYYMNWVRQAPGKGLEWIGDINPVTGDTDYNADFKRRFTFSLDTSKSTAYLQMNSLRAEDTAVYYCTREGPSFAYWGQGTLVTVSS
VL: DIQLTQSPSSLSASVGDRVTITCRSSQTIVHDNGDTYLEWYQQKPGKAPILLIYKVSNRFSGVPSRFSGSGSGTDFTLTISSLQPEDFATYYCFQGSHVPVTFGQGTKVEIK
notes: as for B4
On to B7, for which, in assay [2], the Kd worked out at 27.4 pM, the koff was determined as 0.00041 s⁻¹ and the kon turned out to be 1.5e+07 M⁻¹ s⁻¹. In assay [3], this molecule displayed a Kd of 19.7 pM, a koff of 0.00016 s⁻¹ and an association rate constant (kon) of 8.11e+06 M⁻¹ s⁻¹.

B8: 31S54V59D / 54R101V (antibody, V domains shown)
VH: EVQLVESGGGLVQPGGSLRLSCAASGYTFTSYYMNWVRQAPGKGLEWIGDINPVTGDTDYNADFKRRFTFSLDTSKSTAYLQMNSLRAEDTAVYYCTREGPSFAYWGQGTLVTVSS
VL: DIQLTQSPSSLSASVGDRVTITCRSSQTIVHSNGDTYLEWYQQKPGKAPNLLIRKVSNRFSGVPSRFSGSGSGTDFTLTISSLQPEDFATYYCFQGSHVPVTFGQGTKVEIKR
notes: KCD119 TAF variant
B8: in assay [2], the Kd was 7.25 pM, the koff amounted to 0.000242 s⁻¹ and the kon came out at 3.33e+07 M⁻¹ s⁻¹. In assay [3], this molecule came in with a Kd of 3.94 pM, a koff of 5.48e-05 s⁻¹ and a kon of 1.39e+07 M⁻¹ s⁻¹.

B9: 54V59D / 34D60W101V (antibody, V domains shown)
VH: EVQLVESGGGLVQPGGSLRLSCAASGYTFTDYYMNWVRQAPGKGLEWIGDINPVTGDTDYNADFKRRFTFSLDTSKSTAYLQMNSLRAEDTAVYYCTREGPSFAYWGQGTLVTVSS
VL: DIQLTQSPSSLSASVGDRVTITCRSSQTIVHSNDDTYLEWYQQKPGKAPNLLIYKVSNRWSGVPSRFSGSGSGTDFTLTISSLQPEDFATYYCFQGSHVPVTFGQGTKVEIK
notes: as for B4
In assay [2], B9 returned a Kd of 53.1 pM, a koff of 0.00083 s⁻¹ and a kon of 1.56e+07 M⁻¹ s⁻¹. Also, in assay [3], the Kd turned out to be 21.3 pM, the koff came to 0.000187 s⁻¹ and the on-rate (kon) was 8.8e+06 M⁻¹ s⁻¹.

B10: 54V / 101V (antibody, V domains shown)
VH: EVQLVESGGGLVQPGGSLRLSCAASGYTFTDYYMNWVRQAPGKGLEWIGDINPVTGDTSYNADFKRRFTFSLDTSKSTAYLQMNSLRAEDTAVYYCTREGPSFAYWGQGTLVTVSS
VL: DIQLTQSPSSLSASVGDRVTITCRSSQTIVHSNGDTYLEWYQQKPGKAPNLLIYKVSNRFSGVPSRFSGSGSGTDFTLTISSLQPEDFATYYCFQGSHVPVTFGQGTKVEIK
notes: as for B4
In assay [2], B10 gave a Kd of 142 pM, a koff of 0.00158 s⁻¹ and a kon of 1.11e+07 M⁻¹ s⁻¹. In assay [3], the Kd is 68.8 pM, the koff was 0.000491 s⁻¹ and the kon stood at 7.14e+06 M⁻¹ s⁻¹.

B11: 54V59D / 32D60W101V (antibody, V domains shown)
VH: EVQLVESGGGLVQPGGSLRLSCAASGYTFTDYYMNWVRQAPGKGLEWIGDINPVTGDTDYNADFKRRFTFSLDTSKSTAYLQMNSLRAEDTAVYYCTREGPSFAYWGQGTLVTVSS
VL: DIQLTQSPSSLSASVGDRVTITCRSSQTIVHDNGDTYLEWYQQKPGKAPNLLIYKVSNRWSGVPSRFSGSGSGTDFTLTISSLQPEDFATYYCFQGSHVPVTFGQGTKVEIK
notes: as for B4
In assay [2], B11 gave a Kd of 41.5 pM, a koff of 0.000371 s⁻¹ and a kon of 8.93e+06 M⁻¹ s⁻¹. In assay [3], the equilibrium dissociation constant (Kd) is 10.2 pM, the koff came to 0.000128 s⁻¹ and the kon is 1.25e+07 M⁻¹ s⁻¹.

B12: 54V59D / 54R101V (antibody, V domains shown)
VH: EVQLVESGGGLVQPGGSLRLSCAASGYTFTDYYMNWVRQAPGKGLEWIGDINPVTGDTDYNADFKRRFTFSLDTSKSTAYLQMNSLRAEDTAVYYCTREGPSFAYWGQGTLVTVSS
VL: DIQLTQSPSSLSASVGDRVTITCRSSQTIVHSNGDTYLEWYQQKPGKAPNLLIRKVSNRFSGVPSRFSGSGSGTDFTLTISSLQPEDFATYYCFQGSHVPVTFGQGTKVEIKR
notes: KCD119 TAF variant
For B12, in assay [2], the Kd is 15.4 pM, the koff was determined as 0.00037 s⁻¹ and the on-rate constant (kon) was 2.4e+07 M⁻¹ s⁻¹. In assay [3], this molecule yielded a Kd of 11.9 pM, a koff of 0.000141 s⁻¹ and a kon of 1.19e+07 M⁻¹ s⁻¹.

B13: 54I59D / 54S60W101V (antibody, V domains shown)
VH: EVQLVESGGGLVQPGGSLRLSCAASGYTFTDYYMNWVRQAPGKGLEWIGDINPITGDTDYNADFKRRFTFSLDTSKSTAYLQMNSLRAEDTAVYYCTREGPSFAYWGQGTLVTVSS
VL: DIQLTQSPSSLSASVGDRVTITCRSSQTIVHSNGDTYLEWYQQKPGKAPNLLISKVSNRWSGVPSRFSGSGSGTDFTLTISSLQPEDFATYYCFQGSHVPVTFGQGTKVEIK
notes: Light label printed 54560W101V, read as 54S60W101V; also called 54I59D / 54560W101V
In assay [2], B13 yielded a Kd of 11.9 pM, a koff of 0.000148 s⁻¹ and a kon of 1.24e+07 M⁻¹ s⁻¹. Also, in assay [3], the Kd stood at 9.85 pM, the off-rate constant (koff) stood at 7.08e-05 s⁻¹ and the kon worked out at 7.19e+06 M⁻¹ s⁻¹.

B14: 54V59D / 34D50V101V (antibody, V domains shown)
VH: EVQLVESGGGLVQPGGSLRLSCAASGYTFTDYYMNWVRQAPGKGLEWIGDINPVTGDTDYNADFKRRFTFSLDTSKSTAYLQMNSLRAEDTAVYYCTREGPSFAYWGQGTLVTVSS
VL: DIQLTQSPSSLSASVGDRVTITCRSSQTIVHSNDDTYLEWYQQKPGKAPVLLIYKVSNRFSGVPSRFSGSGSGTDFTLTISSLQPEDFATYYCFQGSHVPVTFGQGTKVEIK
notes: as for B4
As to B14, in assay [2], the Kd was determined as 59.1 pM, the dissociation rate constant (koff) worked out at 0.00079 s⁻¹ and the kon was 1.34e+07 M⁻¹ s⁻¹. In assay [3], this molecule showed a Kd of 25.7 pM, a koff of 0.000187 s⁻¹ and an association rate constant (kon) of 7.26e+06 M⁻¹ s⁻¹.

B15: KCD112 (antibody, V domains shown)
VH: EVQLQQSGPELVKPGASVKISCKASGYSFTAYYMNWVKHSPEKSLEWIGDINPSTGGTTYNQKFKARATLTVDKSSSTAYMQLKSLTSEDSAVYYCATTYYSGNSYVGFAYWGQGTLVTVSA
VL: DIVMTQSHKFMSTSVGDRVSITCKASQDVSTAVAWYQQKPGQSPKLLIFWTSTRHTGVPDRFTGSGSGTDYTLTISSVQAEDLALYYCQQHYTTPWTFGGGTKLEIK
With B15, the Kd in assay [1] was found to be 9100 pM.

B16: KCD115 (antibody, V domains shown)
VH: EVQLQQSGPELVKPGASVKISCKASGYSFTGYYMNWVKQSPEKSLEWIGDINPSTGGTTYNQKFKAKATLTVDKSSSTAYMQLKSLTSEDSAVYYCATPYYYGSSYVGFAYWGQGTLVTVSA
VL: DIVMTQSHKFMSTSVGDRVSITCKASQDVSTAVDWYQQKPGQSPKLLIYWASTRHTGVPDRFTGSGSGTDYTLTISSVQAEDLALYYCQQHYSTPWTFGGGTKLEIK
For the molecule B16, in assay [1], the Kd amounted to 18000 pM.

Values taken from patent US20180334496A1 (KODIAK SCIENCES, published 2018).
